Measurements reported in PMC5591645.

Biological target: phosphorylated human eIF2α (amino acids 1–185) solubility-enhanced mutant (P-eIF2α) (human) (UniProt P05198)
Assay: MST

Row | Substance | Kd | fold higher affinity than the isolated PP1^D95A
1 | PP1^D95A (human PP1α amino acids 7–330, D95A) (from UniProt P62136 7-330) (enzyme) | 650 nM | –
2 | R15A–PP1^D95A (from UniProt O75807;P62136) (complex) | – | 5.4 fold
3 | R15B–PP1^D95A (from UniProt Q5SWA1;P62136) (complex) | – | 3 fold
